Measurements: paper PMC2194227

Legend:
[1] = molecular target: WT mCD1d cytoplasmic tail peptide (…) (mouse); experiment: SPR
[2] = molecular target: mutant mCD1d cytoplasmic tail peptide (…), tyrosine substituted for alanine (mouse); experiment: SPR

What does the source list for “adaptor protein complex 3 (AP-3) purified from pig brain cytosol”?
Kd [1]: 540 nM; Kd [2]: 2630 nM
